For assay [1], the target named is T1, human serum albumin (HSA) (human, UniProt P02768 25-609).
T1 construct: The assays used bought HSA (Sigma #A37812 in the SPR work); also called HuSA
The experiment in a line: SPR, Biacore, HSA on CM5, pH 7.4; HSA-18 monomer. The procedure:
(§1) For the HSA binding kinetic analysis, HSA (Sigma #A37812) was immobilized on a CM5 chip surface using amine coupling in 10 mM sodium acetate (pH 5.0) (Cytvia). […] The chip surface was regenerated with 3 mM NaOH for 20 seconds at a flow rate of 20 μl/min. The kinetic data was blank subtracted and fit to a 1:1 Langmuir binding model (BIAcore evaluation software; Cytiva).
(§2) Protein was produced from Escherichia coli and characterized as described in Example 1. […] Kinetic analysis was carried out as described in Example 2.

Assay [2] addresses T1, human serum albumin (HSA). The experiment in a line: SPR (Biacore) kinetics: HSA immobilised on a CM5 chip, AFFIMER as analyte, pH 7.4. The procedure: as §1, §2
Background: Surface plasmon resonance follows binding to a sensor surface in real time, without labels.

Assay [3] deals with T2, human PD-L1-Fc (R&D Systems) (human, UniProt Q9NZQ7 19-239).
T2 construct: Bought reagent; also called huPD-L1-Fc; huPD-L1; not shown: Fc part of the bought fusion
The experiment in a line: SPR (Biacore) kinetics: human PD-L1-Fc immobilised on a CM5 chip, AFFIMER as analyte.

In assay [4] the target is T2, human PD-L1-Fc (R&D Systems). The experiment in a line: SPR (Biacore) kinetics: human PD-L1-Fc immobilised on a CM5 chip, AFFIMER as analyte (column KD (pM), the same fit as the KD (M) column).
Assay [5] concerns the target T1, human serum albumin (HSA). The experiment in a line: SPR, Biacore, HSA on CM5, pH 7.4; ILF XT format. The procedure:
as §1, §2

Kd, koff and kon data for two molecules are collected here from patent publication US20240409638A1 (AVACTA LIFE SCIENCES, published 2024).

For orientation: Kd means the concentration at which binding is half-saturated. Read a low Kd as a tighter complex. A word on the koff: it is the first-order rate constant of dissociation. A low value points to slow dissociation. Broadly, the kon is a measure of how fast the partners come together. A low value points to slow association.

T1 sequence (P02768 25-609): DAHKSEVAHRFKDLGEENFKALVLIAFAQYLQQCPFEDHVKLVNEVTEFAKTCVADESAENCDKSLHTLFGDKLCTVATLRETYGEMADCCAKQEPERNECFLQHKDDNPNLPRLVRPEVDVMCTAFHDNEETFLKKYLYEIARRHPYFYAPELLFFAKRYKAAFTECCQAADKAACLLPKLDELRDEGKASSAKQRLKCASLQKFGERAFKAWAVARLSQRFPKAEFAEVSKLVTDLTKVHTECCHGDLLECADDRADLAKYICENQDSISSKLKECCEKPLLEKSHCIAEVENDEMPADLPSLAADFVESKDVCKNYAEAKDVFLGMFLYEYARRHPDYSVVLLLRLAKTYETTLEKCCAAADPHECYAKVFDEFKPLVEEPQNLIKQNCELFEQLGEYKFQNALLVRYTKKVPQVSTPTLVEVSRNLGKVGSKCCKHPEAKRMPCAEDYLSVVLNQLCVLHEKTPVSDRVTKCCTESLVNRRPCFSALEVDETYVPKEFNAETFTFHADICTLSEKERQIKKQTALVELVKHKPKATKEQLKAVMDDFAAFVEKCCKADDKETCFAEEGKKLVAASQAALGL
T2 sequence (Q9NZQ7 19-239 limits assumed): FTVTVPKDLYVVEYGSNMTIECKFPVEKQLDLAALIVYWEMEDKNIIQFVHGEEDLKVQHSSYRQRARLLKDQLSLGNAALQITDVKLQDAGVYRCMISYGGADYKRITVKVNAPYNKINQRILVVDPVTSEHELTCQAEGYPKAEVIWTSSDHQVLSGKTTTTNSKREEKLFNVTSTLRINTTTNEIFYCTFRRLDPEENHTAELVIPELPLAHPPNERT

B1: HSA-18 (anti-serum albumin AFFIMER® polypeptide, XT monomer) (designed binder)
chain: MIPRGLSEAKPATPEIQEIVDKVKPQLEEKTNETYGKLEAVQYKTQVLADWWQAKWPHSTNYYIKVRAGDNKYMHLKVFNGPYKVHQSSGGADRVLTGYQVDKNKDDELTGF
notes: also called HSA-18 monomer
Regarding B1, in assay [1], the Kd was 1.09 nM. In assay [2], this molecule came in with a Kd of 109 nM, a koff of 0.0078 s⁻¹ and a kon of 71400 M⁻¹ s⁻¹.

B2: Clone 80 XT62 (designed binder)
chain: MIPGGLSEAKPATPEIQEIVDKVKPQLEEKTGETYGKLEAVQYKTQVVRRKHFPQWPGTNYYIKVRAGDNKYMHLKVFKSLDLQPREVFQEDLVLTGYQVDKNKDDELTGFAEAAAKEAAAKEAAAKEAAAKEAAAKEAAAKMIPGGLSEAKPATPEIQEIVDKVKPQLEEKTGETYGKLEAVQYKTQVVRRKHFPQWPGTNYYIKVRAGDNKYMHLKVFKSLDLQPREVFQEDLVLTGYQVDKNKDDELTGFAEAAAKEAAAKEAAAKEAAAKEAAAKEAAAKMIPRGLSEAKPATPEIQEIVDKVKPQLEEKTNETYGKLEAVQYKTQVLADWWQAKWPHSTNYYIKVRAGDNKYMHLKVFNGPYKVHQSSGGADRVLTGYQVDKNKDDELTGF
notes: Clone 80 dimer with HSA-18 at the C-terminus; Made in E. coli; No tag is stated for this construct
B2: the Kd came to 0.109 nM in assay [3], 0.11 nM in assay [4], 7.04 nM in assay [5] and 704 nM in assay [2]. The koff in assay [3] was 0.00015 s⁻¹; in assay [2] it was 0.00828 s⁻¹. For the same molecule, the kon turned out to be 1.37e+06 M⁻¹ s⁻¹ in assay [3] and 11800 M⁻¹ s⁻¹ in assay [2].
